# Results as given in patent US20190040368.
# T1: recombinant human iduronate-2 sulfatase (rhIDS)
# T1 chain: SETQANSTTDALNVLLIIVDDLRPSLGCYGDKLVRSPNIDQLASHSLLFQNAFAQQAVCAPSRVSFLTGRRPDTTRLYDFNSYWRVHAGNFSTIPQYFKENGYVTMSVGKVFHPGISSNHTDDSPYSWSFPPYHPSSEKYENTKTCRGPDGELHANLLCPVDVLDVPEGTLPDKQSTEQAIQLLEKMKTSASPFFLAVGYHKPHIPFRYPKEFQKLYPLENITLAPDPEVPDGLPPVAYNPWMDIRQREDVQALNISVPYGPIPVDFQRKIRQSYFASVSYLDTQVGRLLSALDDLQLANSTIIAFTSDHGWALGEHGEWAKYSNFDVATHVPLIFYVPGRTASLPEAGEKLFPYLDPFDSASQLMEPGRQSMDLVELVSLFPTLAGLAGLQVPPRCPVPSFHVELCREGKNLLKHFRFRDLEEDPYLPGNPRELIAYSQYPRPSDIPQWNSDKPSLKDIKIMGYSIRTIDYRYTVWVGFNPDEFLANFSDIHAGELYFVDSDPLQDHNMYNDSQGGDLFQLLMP
# T2: recombinant human sulfamidase (rSGSH)
# T2 chain: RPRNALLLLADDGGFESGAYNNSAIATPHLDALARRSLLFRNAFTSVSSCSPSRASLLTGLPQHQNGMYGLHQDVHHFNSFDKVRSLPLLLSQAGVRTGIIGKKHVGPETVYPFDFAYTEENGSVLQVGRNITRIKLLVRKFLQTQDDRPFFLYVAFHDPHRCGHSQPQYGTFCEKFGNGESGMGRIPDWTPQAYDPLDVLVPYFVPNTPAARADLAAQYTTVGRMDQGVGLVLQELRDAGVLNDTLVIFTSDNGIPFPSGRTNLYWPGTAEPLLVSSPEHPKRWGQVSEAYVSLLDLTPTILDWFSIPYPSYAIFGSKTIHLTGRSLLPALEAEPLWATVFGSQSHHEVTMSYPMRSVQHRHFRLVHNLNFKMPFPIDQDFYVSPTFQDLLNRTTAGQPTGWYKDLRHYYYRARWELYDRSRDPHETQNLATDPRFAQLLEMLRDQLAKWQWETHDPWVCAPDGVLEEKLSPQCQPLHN
# Key:
# [1] = target: T1, recombinant human iduronate-2 sulfatase …
# [2] = target: T2, recombinant human sulfamidase (rSGSH)
protein,measurement,setting,value
Bos taurus FGE fusion protein (Lip2pre-BtFGE-6HIS-HDEL) (protein) GEEAGPEAGAPSLVGSCGCGNPQRPGAQGSSAAAHRYSREANAPGSVPGGRPSPPTKMVPIPAGVFTMGTDDPQIKQDGEAPARRVAIDAFYMDAYEVSNAEFEKFVNSTGYLTEAEKFGDSFVFEGMLSEQVKSDIQQAVAAAPWWLPVKGANWRHPEGPDSTVLHRPDHPVLHVSWNDAVAYCTWAGKRLPTEAEWEYSCRGGLQNRLFPWGNKLQPKGQHYANIWQGEFPVTNTGEDGFRGTAPVDAFPPNGYGLYNIVGNAWEWTSDWWTVHHSAEETINPKGPPSGKDRVKKGGSYMCHKSYCYRYRCAARSQNTPDSSASNLGFRCAADHLPTTGADHLPTTGHHHHHHHDEL,% FGly conversion (nano-LC MS); strain T146 (OXYY1828; BtFGE),[1],89.8%
same,"% FGly conversion (nano-LC MS); strain T146 (OXYY1828; BtFGE), duplicate",[1],92.7%
same,"% FGly conversion-re-analyzed samples; DG29U5#7, OXYY1828; BtFGE",[1],95.8%
same,"% FGly conversion-re-analyzed samples; DG33U6#6, OXYY1803; BtFGE and hPDI co-expressed",[1],90.3%
same,"% FGly conversion-re-analyzed samples; DG33U8#6, OXYY1828; BtFGE",[1],97.1%
same,"% FGly conversion; DG33U6#6, OXYY1803; BtFGE and hPDI co-expressed",[1],79.5%
same,% FGly conversion; two copies of rhIDS and one copy of BtFGE (POX2 driven),[1],100% FGly conversion at a detection limit of -0.5%
same,"% active rhIDS (4MU activity against ELISA); 1 copy rhIDS, 1 copy BtFGE (POX)",[1],129%
same,"% active rhIDS (4MU activity against ELISA); 1 copy rhIDS, 1 copy BtFGE (POX), 1 copy hPDI (POX)",[1],121%
same,% activity of rhIDS; two copies of rhIDS and one copy of BtFGE (POX2 driven),[1],101% activity
same,Cys->FGly conversion in rhIDS (nano-LC-MS after cation exchange purification); BtFGE as a single POX2 driven copy,[1],"complete conversion (100%, with a detection limit of -0.5%)"
same,"active rhIDS (4MU fluorogenic activity assay against sandwich ELISA), co-expression in Y. lipolytica",[1],All Y. lipolytica strains co-expressing rFGE with rhIDS resulted in the expression of active rhIDS.
same,"% FGly conversion; sample 1, SGSH (POX) + BtFGE (POX) + hPDI (POX)",[2],95.4%
same,"% FGly conversion; sample 2, SGSH (POX) + BtFGE (POX) + hPDI (POX)",[2],80.4%
same,"% FGly conversion; sample 3, SGSH (POX) + BtFGE (POX) + hPDI (POX) §",[2],93.4%
same,"% FGly conversion; sample 4, SGSH (POX) + BtFGE (POX) + hPDI (POX) §",[2],86.1%
same,"% FGly conversion; sample 5, SGSH (POX) + BtFGE (POX & Hp4d)",[2],94.4%
